Reference: patent US8063008B2, “Enzymatic production of peracids using perhydrolytic enzymes” (E. I. du Pont de Nemours and Company, priority 2005, dated 2011)

B1: ICR-114: porcine pancreas lipase, BioCatalytics (protein, UniProt P00591 1-450, looked up)
Pancreatic triacylglycerol …: SEVCFPRLGCFSDDAPWAGIVQRPLKILPWSPKDVDTRFLLYTNQNQNNYQELVADPSTITNSNFRMDRKTRFIIHGFIDKGEEDWLSNICKNLFKVESVNCICVDWKGGSRTGYTQASQNIRIVGAEVAYFVEVLKSSLGYSPSNVHVIGHSLGSHAAGEAGRRTNGTIERITGLDPAEPCFQGTPELVRLDPSDAKFVDVIHTDAAPIIPNLGFGMSQTVGHLDFFPNGGKQMPGCQKNILSQIVDIDGIWEGTRDFVACNHLRSYKYYADSILNPDGFAGFPCDSYNVFTANKCFPCPSEGCPQMGHYADRFPGKTNGVSQVFYLNTGDASNFARWRYKVSVTLSGKKVTGHILVSLFGNEGNSRQYEIYKGTLQPDNTHSDEFDSDVEVGDLQKVKFIWYNNNVINPTLPRVGASKITVERNDGKVYDFCSQETVREEVLLTLNPC
B2: ICR-116: Mucor miehei lipase, BioCatalytics (protein, UniProt P19515 95-363, looked up)
Lipase: SIDGGIRAATSQEINELTYYTTLSANSYCRTVIPGATWDCIHCDATEDLKIIKTWSTLIYDTNAMVARGDSEKTIYIVFRGSSSIRNWIADLTFVPVSYPPVSGTKVHKGFLDSYGEVQNELVATVLDQFKQYPSYKVAVTGHSLGGATALLCALDLYQREEGLSSSNLFLYTQGQPRVGDPAFANYVVSTGIPYRRTVNERDIVPHLPPAAFGFLHAGEEYWITDNSPETVQVCTSDLETSDCSNSIVPFTSVLDHLSYFGINTGLCT
B3: ICR-107: Pseudomonas cepacia lipase, BioCatalytics (protein, UniProt P22088 45-364, looked up)
Triacylglycerol lipase: AAGYAATRYPIILVHGLSGTDKYAGVLEYWYGIQEDLQQNGATVYVANLSGFQSDDGPNGRGEQLLAYVKTVLAATGATKVNLVGHSQGGLSSRYVAAVAPDLVASVTTIGTPHRGSEFADFVQDVLAYDPTGLSSSVIAAFVNVFGILTSSSHNTNQDALAALQTLTTARAATYNQNYPSAGLGAPGSCQTGAPTETVGGNTHLLYSWAGTAIQPTLSVFGVTGATDTSTLPLVDPANVLDLSTLALFGTGTVMINRGSGQNDGLVSKCSALYGKVLSTSYKWNHLDEINQLLGVRGAYAEDPVAVIRTHANRLKLAGV
B4: ICR-115: Thermomyces languinosus lipase, BioCatalytics (protein, UniProt O59952 23-291, looked up)
Lipase: EVSQDLFNQFNLFAQYSAAAYCGKNNDAPAGTNITCTGNACPEVEKADATFLYSFEDSGVGDVTGFLALDNTNKLIVLSFRGSRSIENWIGNLNFDLKEINDICSGCRGHDGFTSSWRSVADTLRQKVEDAVREHPDYRVVFTGHSLGGALATVAGADLRGNGYDIDVFSYGAPRVGNRAFAEFLTVQTGGTLYRITHTNDIVPRLPPREFGYSHSSPEYWIKSGTLVPVTRNDIVKIEGIDATGGNNQPNIPDIPAHLWYFGLIGTCL

What was measured:
Format in all cases: biochemical
[1] = Lipase-catalyzed perhydrolysis of triacetin at pH 4.0 (Example 2); details: 250 mM triacetin, 500 mM H2O2, pH 4.0, 1 mg enzyme, 22° C.
Description: Into a 4-mL glass vial with stir bar was added 1 mg enzyme (ICR 101-117, BioCatalytics, Pasadena, Calif.) in 0.050 mL of 50 mM sodium acetate/acetic acid buffer (pH 4.0), 0.900 mL of 278 mM triacetin in 50 mM sodium acetate/acetic acid buffer (pH 4.0, 250 mM final triacetin concentration), and 0.052 mL 30% hydrogen peroxide (500 mM final concentration). […] A portion of the filtered reaction samples was diluted 1:10 with dd water and analyzed for hydrogen peroxide, and the remaining portion of the sample was directly analyzed for peracid using the HPLC assay method (Table 2).

[2] = Lipase-catalyzed perhydrolysis of a mixture of diacetin, triacetin and monoacetin at pH 6.5 (Example 4); details: diacetin (278 mM), triacetin (144 mM), monoacetin (131 mM); for 250 mM H2O2 peracetic acid (ppm), 5 min / 250 mM H2O2 peracetic acid (ppm), 30 min: pH 6.5, 250 mM H2O2, 1 mg enzyme; for 500 mM H2O2 peracetic acid (ppm), 5 min / 500 mM H2O2 peracetic acid (ppm), 30 min: pH 6.5, 500 mM H2O2, 1 mg enzyme
Description: Into a 4-mL glass vial with stir bar was added 1 mg enzyme (ICR 101-117, BioCatalytics, Pasadena, Calif.) in 0.050 mL of 50 mM potassium phosphate buffer (pH 6.5), 0.900 mL of an aqueous mixture containing diacetin (278 mM), triacetin (144 mM) and monoacetin (131 mM) in 50 mM potassium phosphate buffer (pH 6.5), and either 0.052 mL 30% hydrogen peroxide (500 mM final concentration) or 0.026 mL 30% hydrogen peroxide (250 mM final concentration). […] A portion of the filtered reaction samples was diluted 1:10 with dd water and analyzed for hydrogen peroxide, and the remaining portion of the sample was directly analyzed for peracid using the HPLC assay method (Table 4).

[3] = Lipase-catalyzed perhydrolysis of triacetin at pH 6.5 (Example 1); details: 250 mM triacetin, 500 mM H2O2, pH 6.5, 1 mg enzyme, 22° C.
Description: Into a 4-mL glass vial with stir bar was added 1 mg enzyme (ICR 101-117, BioCatalytics, Pasadena, Calif.) in 0.050 mL of 50 mM potassium phosphate buffer (pH 6.5), 0.900 mL of 278 mM triacetin in 50 mM potassium phosphate buffer (pH 6.5, 250 mM final triacetin concentration), and 0.052 mL 30% hydrogen peroxide (500 mM final concentration). After stirring for 5 or 30 minutes at 22° C., a 0.250 mL sample was filtered using a 30,000 Nominal Molecular Weight Limit (NMWL) filter (Millipore UltraFree-MC, Millipore Corp., Billerica, Mass.) centrifuged for 2 minute at 12,000 RPM. A portion of the filtered reaction samples was diluted 1:10 with dd water and analyzed for hydrogen peroxide, and the remaining portion of the sample was directly analyzed for peracid using the HPLC assay method (Table 1).

Molecule	peracetic acid (ppm), 5 min [1] [ppm]	peracetic acid (ppm), 30 min [1] [ppm]	250 mM H2O2 peracetic acid (ppm), 5 min [2] [ppm]	250 mM H2O2 peracetic acid (ppm), 30 min [2] [ppm]	500 mM H2O2 peracetic acid (ppm), 5 min [2] [ppm]	500 mM H2O2 peracetic acid (ppm), 30 min [2] [ppm]	peracetic acid (ppm), 5 min [3] [ppm]	peracetic acid (ppm), 30 min [3] [ppm]
B1	165	53	0	0	0	0	135	0
B2	14	0	0	7	0	0	238	117
B3	32	135	0	102	17	54	179	0
B4	206	132	0	8	11	8	216	113
